From patent publication US20220096653A1, “CONJUGATE COMPRISING LIGAND AND CEACAM5 ANTIBODY FAB FRAGMENT” (ASTELLAS PHARMA INC., priority 2019, published 2022)
Several values for one entry are separate records, joined by “and”; a condition that tells them apart may be missing. Equal entries are not always repeated.

Tests used:
liver metastasis = conditions: compared with the normal liver; cited from earlier work
[1] = mouse, in vivo; cited from earlier work
[2] = biological target: human cancer-specific MUC1 peptide (PTL 1) (human); assay: ELISA on immobilised human cancer-specific MUC1 peptide, 4-parameter fit; one of 3 runs (Example 6-1)
[3] = biological target: human cancer-specific MUC1 peptide (PTL 1) (human); assay: ELISA on immobilised human cancer-specific MUC1 peptide, 4-parameter fit; one of 3 runs (Example 6-2)
[4] = tested on: human colorectal cancer cell line LS174T cells; assay: Amount of tumor accumulation of Gd-labeled conjugates, LS174T tumor-bearing mice (Example 4-4); conditions: Gd per g of tumor tissue, 24 hours, mean of 3 cases
Protocol: (§3) A Gd-labeled conjugate of the conjugate containing a peptide linker produced in one of the above Examples was administered from the tail vein of tumor-bearing mice so that the protein mass was 0.02 mg (100 μL) per animal. As the tumor-bearing mice used in the present Example, mice (BALB/c nu/nu) that were in a tumor-bearing state brought about by transplanting human colorectal cancer cell line LS174T cells (ATCC(registered trademark); CL-188) at 2.0 to 5.0×10^6 cells/mouse subcutaneously on the back before administration of the sample were used. 24 hours after administration of the sample, the mice were sacrificed, the kidneys and the tumor were removed, and the amounts of Gd in the kidneys and in the tumor were measured using ICP-MS. The present test was carried out in 3 cases in each group, and the mean value of the 3 cases was calculated. The amount of Gd contained per kidney after administration was shown as a percentage of the amount of Gd administered (% of dose/tissue), and the amount of Gd contained per g of tumor tissue was shown as a percentage of the total amount of Gd administered (% of dose/g).

[5] = Kidney accumulation evaluation test of Gd-labeled conjugates, normal mice (Example 4-1)
Protocol: A Gd-labeled conjugate of the conjugate containing a peptide linker produced in one of the above Examples was administered from the tail vein of mice (BALB/c or BALB/c nu/nu) so that the protein mass was 0.02 mg (100 μL) per animal. After about 24 hours, the mice were sacrificed and the kidneys were removed, and the amount of Gd in the kidneys was measured using ICP-MS. The present test was carried out in 3 cases in each group, the mean value of the 3 cases was calculated, and the amount of Gd contained per kidney after administration was shown as a percentage (% of dose/tissue) of the total amount of Gd administered.
Based on the percentage of the control conjugate (% of dose/tissue), the proportion of decrease in the amount of Gd contained in the kidneys of each of the conjugates having a peptide linker was determined and shown in Table 28.

[6] = set-up: species or system mice (BALB/c nu/nu); conditions: mouse, in vivo
Protocol: as §3

[7] = biological target: T1, CEACAM5 (R&D Systems, 4128-CM-050) (human, UniProt P06731 35-685); assay: ELISA on immobilised CEACAM5, 4-parameter fit; geometric mean of 9 runs
T1 construct: Immobilised on the ELISA plate; also called human CEACAM5
T1 sequence (looked up): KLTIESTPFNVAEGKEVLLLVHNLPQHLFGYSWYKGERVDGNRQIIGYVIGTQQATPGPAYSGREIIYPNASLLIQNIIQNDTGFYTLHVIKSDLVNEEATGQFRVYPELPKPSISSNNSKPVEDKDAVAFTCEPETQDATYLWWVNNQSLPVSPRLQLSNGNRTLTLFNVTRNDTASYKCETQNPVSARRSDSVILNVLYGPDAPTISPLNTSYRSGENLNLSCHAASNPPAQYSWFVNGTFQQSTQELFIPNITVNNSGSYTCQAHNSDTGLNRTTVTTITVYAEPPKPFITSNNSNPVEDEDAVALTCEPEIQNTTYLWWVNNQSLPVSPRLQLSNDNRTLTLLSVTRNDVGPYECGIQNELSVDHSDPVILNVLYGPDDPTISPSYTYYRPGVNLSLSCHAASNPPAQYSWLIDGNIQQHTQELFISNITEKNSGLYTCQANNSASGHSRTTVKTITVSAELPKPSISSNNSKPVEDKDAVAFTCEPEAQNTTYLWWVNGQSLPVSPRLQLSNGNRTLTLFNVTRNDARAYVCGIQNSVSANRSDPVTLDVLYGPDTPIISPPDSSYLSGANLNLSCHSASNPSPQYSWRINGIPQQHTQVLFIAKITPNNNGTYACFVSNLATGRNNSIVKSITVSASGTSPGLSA
Protocol: (§1) Each anti-human CEACAM5 antibody Fab fragment conjugate prepared in Example 2 was subjected to ELISA to evaluate the binding activity thereof to CEACAM5. In the present test, a phosphate buffer (Nacalai Tesque Inc., 0.1 mol/L-Phosphate Buffer Solution (pH 7.2)) prepared to 10 mM by diluting 10-fold with distilled water was used as a solvent for an antigen immobilization liquid, and 20×PBS/Tween 20 Buffer (Thermo Fisher Scientific Inc., 28352) diluted 20-fold with distilled water was used as a wash liquid. In addition, for bovine serum albumin (BSA) used in the present test, 30% Bovine Serum Albumin solution (Sigma-Aldrich, Inc., A9576-50ML) was added in an appropriate proportion for use. CEACAM5 (R&D Systems, 4128-CM-050) was diluted with a 10 mM phosphate buffer (pH 7.2) to 0.1 μg/mL, and added to a Nunc MaxiSorp White 384 plate (Nunc, 4603272) at 30 μL per well, and the plate was incubated overnight at 4° C. for immobilization. The CEACAM5 immobilization liquid was removed by reverse centrifugation, and then blocking was carried out by adding a PBS/Tween 20 buffer containing 5.0% BSA. […] The substrate was incubated at room temperature for 15 minutes, and then a signal value thereof was measured using an Envision counter (PerkinElmer, Inc.).
The test for each antibody was carried out in duplicate, and an EC₅₀ value was calculated using a 4-parameter logistic curve model.

[8] = biological target: T1, CEACAM5 (R&D Systems, 4128-CM-050); assay: ELISA on immobilised CEACAM5, 4-parameter fit; one of 2 runs (Example 3-2)
Protocol: as §1
(§2) The test for each antibody was carried out in duplicate, and the EC₅₀ value was calculated using a 4-parameter logistic curve model.

[9] = biological target: T1, CEACAM5 (R&D Systems, 4128-CM-050); assay: ELISA on immobilised CEACAM5, 4-parameter fit, duplicate (Example 3-2)
Protocol: as §1, §2

CEA-Scan: mouse monoclonal antibody NP-4 Fab′ labeled with ^99mTc; FDA-approved diagnostic drug for colorectal cancer
uptake into lesion sites (liver metastasis): does not exceed the uptake into the normal liver

[^111In]DOTA-Rituxan Fab: conjugate of [^111In]DOTA-Rituxan Fab (NPL 11)
accumulation in the kidneys [1]: highly accumulated in the kidneys

B1: anti-human MUC1 antibody Fab fragment P10-2 (Fab, V domains shown)
VH: QVQLVQSGAEVKKPGASVKVSCKASGYTFTNYGLSWVRQAPGQGLEWMGENHPGSGIIYHNEKFRGRVTLTADRSTSTAYMELSSLRSEDTAVYYCARSSGTRGFDYWGQGTLVTVSS
VL: DVVMTQTPLSLSVTPGQPASISCRSSQSIVHSNGNTYLEWYLQKPGQSPQLLIYRVSNRFSGVPDRFSGSGSGTDFTLKISRVEAEDVGVYYCFQGSHGPWTFGQGTKLEIKR
modifications: glutamine of amino acid 1 modified to pyroglutamic acid (as Fab^5 is defined in paragraph 370)
EC50 [2]: 60 pM and 140 pM
EC50 [3]: 60 pM and 140 pM

B2: [Gd/DOTA-[2,5-(1,2,3,4-tetrahydroisoquinoline)]-C(═O)-Met-Gly-Lys*-Z2(#N)]p-Fab^2 (conjugate)
heavy: EVQLVESGGGLVQPGGSLRLSCAASGFNIRDTYMHWVRQAPGKGLEWVARIDPANGNSRYVPKFQGRFTISADTSRNTAYLQMNSLRAEDTAVYYCAPFGYYVSDYAMAYWGQGTLVTVSSASTKGPSVFPLAPSSKSTSGGTAALGCLVKDYFPEPVTVSWNSGALTSGVHTFPAVLQSSGLYSLSSVVTVPSSSLGTQTYICNVNHKPSNTKVDKKVEPKSCD
light: DIQLTQSPSSLSASVGDRVTITCRAGESVDIFGVGFLHWYQQKPGKAPKLLIYRASNLESGIPSRFSGSGSRTDFTLTISSLQPEDFATYYCQQTNEDPYTFGQGTKVEIKRTVAAPSVFIFPPSDEQLKSGTASVVCLLNNFYPREAKVQWKVDNALQSGNSQESVTEQDSKDSTYSLSSTLTLSKADYEKHKVYACEVTHQGLSSPVTKSFNRGEC
Amount of tumor accumulation (tumor-bearing mice) [4]: 4.53 % dose/g
Proportion of decrease (amount of Gd contained in the kidneys) ([5]; based on control conjugate Ex-No. 47, about 24 hours): 82.9%
% of dose/tissue (amount of Gd contained per kidney) ([5]; tail vein, 0.02 mg protein per animal, about 24 hours, ICP-MS, mean of 3 cases): 5.3 % of dose/tissue
Renal residual amount (tumor-bearing mice) % of dose/tissue [6]: 7.30 % of dose/tissue
Renal residual amount (tumor-bearing mice) Proportion of decrease [6]: 71.74%

B3: anti-human CEACAM5 antibody Fab fragment PB009-01 (Fab, V domains shown)
VH: EVQLVESGGGLVQPGGSLRLSCAASGFNIRDTYMHWVRQAPGKGLEWVARIDPANGNSRYVPKFQGRFTISADTSRNTAYLQMNSLRAEDTAVYYCAPFGYYVSDYAMAYWGQGTLVTVSS
VL: DIQLTQSPSSLSASVGDRVTITCRAGESVDIFGVGFLHWYQQKPGKAPKLLIYRASNLESGIPSRFSGSGSRTDFTLTISSLQPEDFATYYCQQTNEDPYTFGQGTKVEIKR
notes: Humanized from mouse T84.66; also called Fab^2; Fab^2 fragment having no labeling portion
EC50 [7]: 200 pM
EC50 [8]: 140 pM and 210 pM

B4: [Gd/DOTA-NH-CH2-(1,4-Ph)-NH-C(═O)-Met-Ile-NH-(CH2)2-(A-4 and/or A-5)]p-Fab^2 (Fab, V domains shown)
VH: B3 VH
VL: B3 VL
modifications: labeling may sit on this chain; sites not stated; labeling portion (MW 1092) on amino groups of the Fab, sites and chain not stated; 1-4 per Fab by MS
notes: also called Ex-No 66; Conjugate No. 66
EC50 [9]: 160 pM

B5: [Gd/DOTA-NH-CH2-(1,4-Ph)-NH-C(═O)-Met-Ile-NH-(CH2)2-(A-3)]p-Fab^2 (Fab, V domains shown)
VH: B3 VH
VL: B3 VL
modifications: labeling may sit on this chain; sites not stated; labeling portion (MW 1187) on amino groups of the Fab, sites and chain not stated; 1-3 per Fab by MS
notes: also called Ex-No 68; Conjugate No. 68
EC50 [9]: 310 pM
